Legend:
[1] = background statement on prior art; cited from earlier work
[2] = background statement on prior art; cited from earlier work; remark: listed apart in the source

## inulin
[1]
  blood pressure after injection into an experimental animal: transient reduction in blood pressure
[2]
  solubility in water: only very slightly soluble in water

## FITC-inulin
rat, 30 mg per kg at intervals of 2 days, sacrificed 4 hours after last administration
  fluorescence (presence of substance) in lung, liver and kidney sections: considerable fluorescence is observed
rat, liver, substance found mainly intracellularly
  effect of deposition in the liver: irreversible cell damage (cell death)
rat, lung, substance found in the corpuscles
  effect of deposition in the lung: leads to microstenoses and ultimately to embolism
Rats sacrificed 6 minutes after the injection, rinsed with saline solution
  fluorescence (accumulation) in liver, lung and kidneys: accumulates in the liver, lung and kidneys
[1]
  blood pressure after injection into an experimental animal: transient reduction in blood pressure
[2]
  solubility in water: only very slightly soluble in water

— patent US6995019B2, “Fluorescent isothiocyanate (fitc) sinistrin, its production and use” (priority 2000, dated 2006)
